According to paper PMC5777263:

Key:
[1] = molecular target: Cupriavidus metallidurans Betaproteobacteria proteasome homolog (Cm-BPH) (Cupriavidus metallidurans); assay: SEC-SAXS; Shodex Kw-403 column, 20 °C, 20 mM HEPES-NaOH pH 8.0, 150 mM NaCl, 2 mM TCEP, 1% sucrose; Cm-BPH 8.25 mg/ml, Td-BPH 15 mg/ml; profiles fitted with dodecameric and tetradecameric crystal models (FoXS)
[2] = molecular target: Cupriavidus metallidurans Betaproteobacteria proteasome homolog (Cm-BPH) (Cupriavidus metallidurans); assay: crystal structure; Cm-BPH, space group P6, 2.1 Å, two monomers in the ASU; dodecamer called non-native, malonate molecules intercalated in the intersubunit clefts
[3] = molecular target: Cupriavidus metallidurans Betaproteobacteria proteasome homolog (Cm-BPH) (Cupriavidus metallidurans); assay: AUC + SEC-MALS; sedimentation velocity: 0.5 mg/ml protein in buffer A, 20 °C, 40,000 rpm; SEC-coupled multiangle light scattering; self-assembly
[4] = molecular target: Cupriavidus metallidurans Betaproteobacteria proteasome homolog (Cm-BPH) (Cupriavidus metallidurans); assay: negative-stain electron microscopy; 0.1 mg/ml protein, 1% uranyl acetate, particles classified and averaged (EMAN2)
[5] = molecular target: Thiobacillus denitrificans Betaproteobacteria proteasome homolog (Td-BPH) (Thiobacillus denitrificans); assay: SEC-SAXS; Shodex Kw-403 column, 20 °C, 20 mM HEPES-NaOH pH 8.0, 150 mM NaCl, 2 mM TCEP, 1% sucrose; Cm-BPH 8.25 mg/ml, Td-BPH 15 mg/ml; profiles fitted with dodecameric and tetradecameric crystal models (FoXS)
[6] = molecular target: Thiobacillus denitrificans Betaproteobacteria proteasome homolog (Td-BPH) (Thiobacillus denitrificans); assay: crystal structure; Td-BPH apo: hexagonal form P6(1)22 (100 mM sodium acetate pH 4.8, 1.2 M sodium nitrate) and orthorhombic form P2(1)2(1)2(1) (100 mM HEPES-NaOH pH 7.0, 600 mM NaF), 2.3 Å
[7] = molecular target: Thiobacillus denitrificans Betaproteobacteria proteasome homolog (Td-BPH) (Thiobacillus denitrificans); assay: AUC + SEC-MALS; sedimentation velocity: 0.5 mg/ml protein in buffer A, 20 °C, 40,000 rpm; SEC-coupled multiangle light scattering; self-assembly
[8] = molecular target: Thiobacillus denitrificans Betaproteobacteria proteasome homolog (Td-BPH) (Thiobacillus denitrificans); assay: negative-stain electron microscopy; 0.1 mg/ml protein, 1% uranyl acetate, particles classified and averaged (EMAN2)

Substance | stoichiometry N [1] | stoichiometry N [2] | stoichiometry N [3] | stoichiometry N (subunits per ring) [4] | stoichiometry N [5] | stoichiometry N [6] | stoichiometry N [7] | stoichiometry N (subunits per ring) [8]
Cupriavidus metallidurans Betaproteobacteria proteasome homolog (Cm-BPH) (enzyme) | 14 subunits | 12 subunits | 13.8 subunits | 7 | – | – | – | –
Thiobacillus denitrificans Betaproteobacteria proteasome homolog (Td-BPH) (enzyme) | – | – | – | – | 14 subunits | 14 subunits | 14 subunits | 7
